The target in assay [1] is T1, FERM of EPB41L5 (N-terminal FERM domain construct, Flag-tagged) (human, UniProt Q9HCM4 43-327).
T1 construct: the real construct is only its N-terminal FERM domain; not shown: Flag tag from vector pSG5-KF2M1-Flag
Description: Western blot of transfected 293T cells. On the technique in general: Immunoblotting shows a protein as a band on a membrane.

The target in assay [2] is T2, Δ619-624 of EPB41L5 (Flag-tagged deletion construct) (human, UniProt Q9HCM4 1-733).
T2 construct: also called A619-624; not shown: Flag tag from vector pSG5-KF2M1-Flag
T2 sequence (Q9HCM4 other isoform, or with tags, fused parts or gaps mutant): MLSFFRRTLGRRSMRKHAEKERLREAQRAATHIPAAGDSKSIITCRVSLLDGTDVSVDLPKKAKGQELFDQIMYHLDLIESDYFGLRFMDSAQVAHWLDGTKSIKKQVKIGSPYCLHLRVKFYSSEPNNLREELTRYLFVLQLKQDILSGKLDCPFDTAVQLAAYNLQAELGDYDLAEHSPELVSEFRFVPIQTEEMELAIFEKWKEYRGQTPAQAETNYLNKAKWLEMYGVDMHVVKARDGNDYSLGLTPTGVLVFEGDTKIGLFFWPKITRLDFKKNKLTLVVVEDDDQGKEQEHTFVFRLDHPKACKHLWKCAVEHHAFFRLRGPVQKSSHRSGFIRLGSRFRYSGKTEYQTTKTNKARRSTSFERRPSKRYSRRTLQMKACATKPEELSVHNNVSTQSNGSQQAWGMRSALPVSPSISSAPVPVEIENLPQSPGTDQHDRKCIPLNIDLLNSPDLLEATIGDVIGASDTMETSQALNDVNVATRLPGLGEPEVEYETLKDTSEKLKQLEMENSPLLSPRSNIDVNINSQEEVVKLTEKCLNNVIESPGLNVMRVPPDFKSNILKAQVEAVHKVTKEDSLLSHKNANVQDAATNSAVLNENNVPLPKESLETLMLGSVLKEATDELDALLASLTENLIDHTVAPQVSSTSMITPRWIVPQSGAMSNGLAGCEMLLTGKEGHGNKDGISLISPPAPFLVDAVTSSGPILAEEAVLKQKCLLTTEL
Description: immunofluorescent staining of MKN28 cells co-transfected with EPB41L5 siRNA and construct. On the procedure: At this time, the immunofluorescent staining was performed using anti-EPB41L5 mAb and anti-Flag antibodies. Green represents EPB41L5, red represents Flag tag, blue represents Hochest, and scale bars represent 20 μm.
Considering the characteristics of nonpermeabilized immunofluorescent staining, in order to inhibit expression of endogenous EPB41L5, cells were co-transfected with EPB41L5 siRNA and any one plasmid selected from among FL (full length) of EPB41L5, FERM of EPB41L5, C-terminus of EPB41L5 and Δ619-624 of EPB41L5. Then, expression of exogenous EPB41L5 was analyzed using anti-Flag antibody. EPB41L5 expression was detected in […] transfected with FL and C-terminal constructs and in MKN28 cells […] with A619-624 (FIG. 6H).

T1 sequence (Q9HCM4 43-327): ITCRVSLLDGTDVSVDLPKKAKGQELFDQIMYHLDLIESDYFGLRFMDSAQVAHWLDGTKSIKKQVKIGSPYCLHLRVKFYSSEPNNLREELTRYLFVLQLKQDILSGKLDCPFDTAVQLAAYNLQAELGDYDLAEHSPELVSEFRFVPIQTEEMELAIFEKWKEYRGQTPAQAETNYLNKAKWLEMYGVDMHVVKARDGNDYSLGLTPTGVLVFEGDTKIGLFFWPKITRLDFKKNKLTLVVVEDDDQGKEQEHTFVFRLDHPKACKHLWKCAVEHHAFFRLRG

B1: anti-EPB41L5 monoclonal antibody (antibody, V domains shown)
VH: QVQLKESGTVLARPGASVKMSCKASGYTFTSYWMHWVKQRPGQGLEWIGAIYPGNSDTSYNQKFKDKAKLTAVTSTSTAYMELSSLTDEASAVYYCTRGGKLPFAMDYWGQGTSVTVSS
VL: DVLMTQTPLSLPVSLGDQASMSCRSSQSLVHSNGNTYLHWYLQKPGQSPKLLIYKVSNRFSGVPDRFSGSGSGTDFTLKISRVEAEDLGVYFCSQSTHVPWTFGGGTKLEIK
notes: also called anti-EPB41L5 mAb; EPB41L5 mAb
For the molecule B1, the binding result in assay [1] and in assay [2] was “no binding” each time.

The record behind these values is patent US20210252145A1 (CELLASTER, published 2021).
